B1: KRT18 (parent)
chain: RVRSLETENRRLESKIREHLEKKG

Variants of: B1
Assay: protein stability index of a GFP-peptide fusion (GPS, HEK-293T) (PSI 1-6); higher = more stable
Details: c terminus: a fixed tail appended
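Note: lentivirally expressed fusions sorted by FACS into six bins by GFP to DsRed ratio, PSI derived from sequencing read proportions per bin multiplied by bin number.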

Variant	protein stability index
RVRSLETENRRLESKISEHLEKKG	5.14
RVRSLETENRRLESKIAEHLEKKG	3.79
RVRSLETENRRLESKINEHLEKKG	4.25
RVRSLETENRRLESKIFEHLEKKG	4.55
RVRSLETENRRLESKIVEHLEKKG	4.96
RVRSLETENRRLESKIMEHLEKKG	4.53
RVRSLETENRRLESKICEHLEKKG	5.24
RVRSLETENRRLESKILEHLEKKG	4.22
RVRSLETENKRLESKIREHLEKKG	4.36
RVRSLETENGRLESKIREHLEKKG	4.68
RVRSLETENERLESKIREHLEKKG	4.79
RVRSLETENVRLESKIREHLEKKG	5.08
RVRSLETENPRLESKIREHLEKKG	5.08
RVRSLETENHRLESKIREHLEKKG	4.74
RVRSLETENNRLESKIREHLEKKG	4.69
RVRSLETENTRLESKIREHLEKKG	4.71
RVRSLETENFRLESKIREHLEKKG	4.76
RVRSLETENDRLESKIREHLEKKG	4.3
RVRSLETENRRLECKIREHLEKKG	3.84
RVRSLETENRRLEVKIREHLEKKG	4.16
RVRSLETENRRLETKIREHLEKKG	4.47
RVRSLETENRRLEHKIREHLEKKG	4.92
RVRSLETENRRLEYKIREHLEKKG	4.24
RVRSLETENRRLEAKIREHLEKKG	4.6

Variant	protein stability index
RVRSLETENRRLEPKIREHLEKKG	4.86
RVRSLETENRRLEKKIREHLEKKG	4.19
RVRSLETEHRRLESKIREHLEKKG	4.51
RVRSLETEDRRLESKIREHLEKKG	5.09
RVRSLETEQRRLESKIREHLEKKG	4.74
RVRSLETELRRLESKIREHLEKKG	1.79
RVRSLETEFRRLESKIREHLEKKG	2.3
RVRSLETENRRQESKIREHLEKKG	5.19
RVRSLETENRRYESKIREHLEKKG	4.91
RVRSLETENRRKESKIREHLEKKG	5.49
RVRSLETENRRIESKIREHLEKKG	4.77
RVRSLETENRRCESKIREHLEKKG	4.78
RVRSLETENRRGESKIREHLEKKG	5.35
RVRSFETENRRLESKIREHLEKKG	4.5
RVRSAETENRRLESKIREHLEKKG	4.54
RVRSTETENRRLESKIREHLEKKG	4.35
RVRSDETENRRLESKIREHLEKKG	4.64
RVRSLETENRRLESKIREHLEKKR	3.81
RVRSLETENRRLESKIREHLEKKP	4.13
RVRSLETENRRLESKIREHLEKKQ	4.14
RVRSLETENRRLESKIREHLEKKV	4.01
RVRSLETENRRLESKIREHLEKKD	4.87
RVRSLETENRRLESKIREHLEKKW	4.04
RVRSLETENRRLESKIREHLEKKK	4.57

Variant	protein stability index
RVRSLETENRRLESKIREHLEKKN	4.61
RVRSLETENRRLESKIREHLEKKF	3.56
RVRSLETENRRLESIIREHLEKKG	4.41
RVRSLETENRRLESQIREHLEKKG	4.56
RVRSLETENRRLESMIREHLEKKG	4.02
RVRSLETENRRLESYIREHLEKKG	4.7
RVRSLETENRRLESCIREHLEKKG	4.06
RVRSLETENRRLESAIREHLEKKG	4.53
RVRSLETENRRLESWIREHLEKKG	3.1
RVRSLETENRRLESEIREHLEKKG	5.16
RVRSLEEENRRLESKIREHLEKKG	5.17
RVRSLEQENRRLESKIREHLEKKG	4.13
RVRSLEGENRRLESKIREHLEKKG	4.22
RVRSLECENRRLESKIREHLEKKG	4.97
RVRSLESENRRLESKIREHLEKKG	4.25
RVRSLEVENRRLESKIREHLEKKG	3.82
RVRSLEMENRRLESKIREHLEKKG	4.05
RVRSLEYENRRLESKIREHLEKKG	4.47
RVRSLETENRRLESKIREHLEPKG	4.82
RVRSLETENRRLESKIREHLELKG	4.12
RVRSLETENRRLESKIREHLETKG	4.45
RVRSLETENRRLESKIREHLEIKG	3.85
RVRSLETENRRLESKIREHLEQKG	4.89
RVRSLETENRRLESKIREHLEFKG	4.16

Variant	protein stability index
RVRSLETENRRLESKIREHLESKG	4.05
RVRSLETENRRLESKIREHLEMKG	3.73
RVRSLETENRRLESKIREHLEYKG	4.08
RVRSLETENRRLESKIREHLERKG	4.21
RVRSLETENRRLESKIREHLEVKG	4.52
RVFSLETENRRLESKIREHLEKKG	3.46
RVGSLETENRRLESKIREHLEKKG	4.64
RVKSLETENRRLESKIREHLEKKG	4.45
RVWSLETENRRLESKIREHLEKKG	3.43
RVLSLETENRRLESKIREHLEKKG	4.51
RVTSLETENRRLESKIREHLEKKG	4.46
RVDSLETENRRLESKIREHLEKKG	4.22
RVASLETENRRLESKIREHLEKKG	4.51
RVVSLETENRRLESKIREHLEKKG	4.44
RVHSLETENRRLESKIREHLEKKG	3.61
RVRSLETENRRLVSKIREHLEKKG	3.74
RVRSLETENRRLSSKIREHLEKKG	3.91
RVRSLETENRRLDSKIREHLEKKG	2.98
RVRSLETENRRLRSKIREHLEKKG	3.99
RVRSLETENRRLPSKIREHLEKKG	4.33
RVRSLETENRRLMSKIREHLEKKG	3.26
RVRSLETENRRLFSKIREHLEKKG	2.16
RVRSLETENRRLYSKIREHLEKKG	3.05
RVRSLETENRRLQSKIREHLEKKG	3.95

Variant	protein stability index
RVRSLETENRRLESKIRKHLEKKG	3.95
RVRSLETENRRLESKIRMHLEKKG	3.94
RVRSLETENRRLESKIRYHLEKKG	4.07
RVRSLETENRRLESKIRVHLEKKG	3.88
RVRSLETENRRLESKIRRHLEKKG	3.99
RVRSLETENRRLESKIRNHLEKKG	4.52
RVRSLETENRRLESKIRHHLEKKG	3.99
RVRSLETENRRLESKIRAHLEKKG	4.46
RVRSLETENRRLESKIRDHLEKKG	4.53
RVRSLETENRRLESKIRTHLEKKG	4.25
RVRSLETENRRLESKIRSHLEKKG	4.55
RVRSLETENRRLESKIREILEKKG	4.03
RVRSLETENRRLESKIRENLEKKG	4.78
RVRSLETENRRLESKIREWLEKKG	2.25
RVRSLETENRRLESKIREALEKKG	4.46
RVRSLETENRRLESKIREVLEKKG	4.49
RVRSLETENRRLESKIREQLEKKG	5.04
MVRSLETENRRLESKIREHLEKKG	4.09
IVRSLETENRRLESKIREHLEKKG	3.38
NVRSLETENRRLESKIREHLEKKG	4.56
FVRSLETENRRLESKIREHLEKKG	1.21
DVRSLETENRRLESKIREHLEKKG	4.9
CVRSLETENRRLESKIREHLEKKG	4.66
EVRSLETENRRLESKIREHLEKKG	3.5

Variant	protein stability index
RVRSLETENRRLESKIREHLSKKG	4.36
RVRSLETENRRLESKIREHLMKKG	4.15
RVRSLETENRRLESKIREHLKKKG	3.75
RVRSLETENRRLESKIREHLAKKG	4.21
RVRSLETENRRLESKIREHLFKKG	3.67
RVRSLETENRRLESKIREHLIKKG	3.9
RVRSLETENRRLESKIREHLVKKG	3.93
RVRSLETENRRLESKIREHLQKKG	3.74
RVRSLETENRRLESKIREHLWKKG	3.32
RVRSLETENRRLESKIREHLRKKG	3.99
RVRSLETANRRLESKIREHLEKKG	4.08
RVRSLETINRRLESKIREHLEKKG	4.4
RVRSLETCNRRLESKIREHLEKKG	4.22
RVRSLETMNRRLESKIREHLEKKG	4.32
RVRSLETGNRRLESKIREHLEKKG	4.42
RVRSLETRNRRLESKIREHLEKKG	3.46
RVRSLNTENRRLESKIREHLEKKG	3.33
RVRSLDTENRRLESKIREHLEKKG	4.62
RVRSLMTENRRLESKIREHLEKKG	3.4
RVRSLVTENRRLESKIREHLEKKG	4.11
RVRSLRTENRRLESKIREHLEKKG	3.96
RVRSLPTENRRLESKIREHLEKKG	4.44
RVRSLETENRYLESKIREHLEKKG	3.33
RVRSLETENRILESKIREHLEKKG	4.47

Variant	protein stability index
RVRSLETENRGLESKIREHLEKKG	3.96
RVRSLETENRSLESKIREHLEKKG	5.33
RVRSLETENRDLESKIREHLEKKG	5.08
RVRSLETENRELESKIREHLEKKG	4.73
RVRSLETENRWLESKIREHLEKKG	3.69
RVRPLETENRRLESKIREHLEKKG	4.58
RVRYLETENRRLESKIREHLEKKG	3.3
RVRNLETENRRLESKIREHLEKKG	4.32
RVRMLETENRRLESKIREHLEKKG	3.64
RVRILETENRRLESKIREHLEKKG	2.97
RVRALETENRRLESKIREHLEKKG	4.24
RVRVLETENRRLESKIREHLEKKG	3.54
RVRSLETENRRLESKQREHLEKKG	5.09
RVRSLETENRRLESKVREHLEKKG	4.37
RVRSLETENRRLESKPREHLEKKG	5.28
RVRSLETENRRLESKCREHLEKKG	4.79
RVRSLETENRRLESKGREHLEKKG	5.45
RVRSLETENRRLESKMREHLEKKG	5.17
RVRSLETENRRLESKYREHLEKKG	4.63
RVRSLETENRRLESKIREHMEKKG	5.12
RVRSLETENRRLESKIREHKEKKG	4.96
RVRSLETENRRLESKIREHFEKKG	4.59
RVRSLETENRRLESKIREHSEKKG	5.44
RVRSLETENRRLESKIREHGEKKG	4.97

Variant	protein stability index
RDRSLETENRRLESKIREHLEKKG	4.83
RWRSLETENRRLESKIREHLEKKG	3.9
RYRSLETENRRLESKIREHLEKKG	4.54
RIRSLETENRRLESKIREHLEKKG	4.21
RERSLETENRRLESKIREHLEKKG	5.32
RQRSLETENRRLESKIREHLEKKG	4.44
RHRSLETENRRLESKIREHLEKKG	4.07
RLRSLETENRRLESKIREHLEKKG	3.55
RKRSLETENRRLESKIREHLEKKG	4.77
RARSLETENRRLESKIREHLEKKG	4.64
RVRSLETENRRLESKIREHLEKHG	3.96
RVRSLETENRRLESKIREHLEKNG	4.78
RVRSLETENRRLESKIREHLEKLG	3.87
RVRSLETENRRLESKIREHLEKFG	3.76
RVRSLETENRRLESKIREHLEKGG	4.75
RVRSLETENRRLESKIREHLEKTG	4.22
RVRSLETENRRLESKIREHLEKAG	4.56
RVRSLETENRRLESKIREHLEKDG	5.45
RVRSLETENRRLESKIREHLEKCG	3.86
RVRSLETENRRLESKIREHLEKQG	4.32

Reference: the supplement of paper PMC10567573
